Laboratory results: PMC12102759 (2025)

B1: CBL peptide 538-553 (E3 ubiquitin-protein ligase CBL), 16-mer library wild type / YES SH3 (YES1 SH3 domain, residues 90-152) (parent complex)
chain 1: TLRDLPPPPPPDRPYS
chain 2: not shown

Variants of: B1
Assay: proteomic peptide phage display deep mutational scan (ProP-PD DMS): M13 P8 16-mer library selected against immobilised GST-tagged bait for four days (rounds), NGS of the eluted pools per day and pseudo-replica; bait immobilised on MaxiSorp plates (10 µg), library pre-cleared on GST, 2 h binding at 4 °C, five washes; one round per day, days 1-4; value from days 2 and 3

First: chain 1 P10W
Second: chain 1 P10R
The screen value of the first is lower: 0.00035 average fractional NGS count over selection days 2 and 3 (reads of this peptide / all reads for the bait, averaged over … for the first, 0.000614 average fractional NGS count over selection days 2 and 3 (reads of this peptide / all reads for the bait, averaged over … for the second.

First: chain 1 P10E
Second: chain 1 P10H
The screen value of the first is lower: 0.00012 average fractional NGS count over selection days 2 and 3 (reads of this peptide / all reads for the bait, averaged over … for the first, 0.00108 average fractional NGS count over selection days 2 and 3 (reads of this peptide / all reads for the bait, averaged over … for the second.

Going from chain 1 P10Y to chain 1 P10I, the screen value rises from 0.00108 average fractional NGS count over selection days 2 and 3 (reads of this peptide / all reads for the bait, averaged over … to 0.00183 average fractional NGS count over selection days 2 and 3 (reads of this peptide / all reads for the bait, averaged over ….

Going from chain 1 P10M to chain 1 P10Q, the screen value falls from 0.000512 average fractional NGS count over selection days 2 and 3 (reads of this peptide / all reads for the bait, averaged over … to 0.000423 average fractional NGS count over selection days 2 and 3 (reads of this peptide / all reads for the bait, averaged over ….

Compared with chain 1 P10N, chain 1 P10F is higher in screen value: 0.000197 average fractional NGS count over selection days 2 and 3 (reads of this peptide / all reads for the bait, averaged over … for the first, 0.0021 average fractional NGS count over selection days 2 and 3 (reads of this peptide / all reads for the bait, averaged over … for the second.

First: chain 1 P10S
Second: chain 1 P10L
The screen value of the first is higher: 0.00132 average fractional NGS count over selection days 2 and 3 (reads of this peptide / all reads for the bait, averaged over … for the first, 0.000964 average fractional NGS count over selection days 2 and 3 (reads of this peptide / all reads for the bait, averaged over … for the second.

First: chain 1 P10A
Second: chain 1 Y15Q
The screen value of the first is lower: 0.000136 average fractional NGS count over selection days 2 and 3 (reads of this peptide / all reads for the bait, averaged over … for the first, 0.000766 average fractional NGS count over selection days 2 and 3 (reads of this peptide / all reads for the bait, averaged over … for the second.

Going from chain 1 Y15I to chain 1 Y15V, the screen value rises from 0.000521 average fractional NGS count over selection days 2 and 3 (reads of this peptide / all reads for the bait, averaged over … to 0.00865 average fractional NGS count over selection days 2 and 3 (reads of this peptide / all reads for the bait, averaged over ….

Compared with chain 1 Y15N, chain 1 Y15L is higher in screen value: 7.8e-05 average fractional NGS count over selection days 2 and 3 (reads of this peptide / all reads for the bait, averaged over … for the first, 0.00132 average fractional NGS count over selection days 2 and 3 (reads of this peptide / all reads for the bait, averaged over … for the second.

Compared with chain 1 Y15F, chain 1 Y15M is lower in screen value: 0.00101 average fractional NGS count over selection days 2 and 3 (reads of this peptide / all reads for the bait, averaged over … for the first, 0.000526 average fractional NGS count over selection days 2 and 3 (reads of this peptide / all reads for the bait, averaged over … for the second.

Compared with chain 1 Y15W, chain 1 Y15R is lower in screen value: 0.000273 average fractional NGS count over selection days 2 and 3 (reads of this peptide / all reads for the bait, averaged over … for the first, 0.000143 average fractional NGS count over selection days 2 and 3 (reads of this peptide / all reads for the bait, averaged over … for the second.

First: chain 1 P9R
Second: chain 1 P9N
The screen value of the first is lower: 8.13e-05 average fractional NGS count over selection days 2 and 3 (reads of this peptide / all reads for the bait, averaged over … for the first, 0.000239 average fractional NGS count over selection days 2 and 3 (reads of this peptide / all reads for the bait, averaged over … for the second.

Going from chain 1 P9V to chain 1 P9S, the screen value falls from 0.000276 average fractional NGS count over selection days 2 and 3 (reads of this peptide / all reads for the bait, averaged over … to 0.000162 average fractional NGS count over selection days 2 and 3 (reads of this peptide / all reads for the bait, averaged over ….

First: chain 1 P9Q
Second: chain 1 P9A
The screen value of the first is lower: 0.000144 average fractional NGS count over selection days 2 and 3 (reads of this peptide / all reads for the bait, averaged over … for the first, 0.000623 average fractional NGS count over selection days 2 and 3 (reads of this peptide / all reads for the bait, averaged over … for the second.

Going from chain 1 P9L to chain 1 P8I, the screen value falls from 0.000514 average fractional NGS count over selection days 2 and 3 (reads of this peptide / all reads for the bait, averaged over … to 0.000407 average fractional NGS count over selection days 2 and 3 (reads of this peptide / all reads for the bait, averaged over ….

Compared with chain 1 P8T, chain 1 P8F is lower in screen value: 0.000116 average fractional NGS count over selection days 2 and 3 (reads of this peptide / all reads for the bait, averaged over … for the first, 5.53e-05 average fractional NGS count over selection days 2 and 3 (reads of this peptide / all reads for the bait, averaged over … for the second.

First: chain 1 P8M
Second: chain 1 P8Y
The screen value of the first is higher: 0.000558 average fractional NGS count over selection days 2 and 3 (reads of this peptide / all reads for the bait, averaged over … for the first, 0.00011 average fractional NGS count over selection days 2 and 3 (reads of this peptide / all reads for the bait, averaged over … for the second.

First: chain 1 P8E
Second: chain 1 P8V
The screen value of the first is lower: 0.0001 average fractional NGS count over selection days 2 and 3 (reads of this peptide / all reads for the bait, averaged over … for the first, 0.0024 average fractional NGS count over selection days 2 and 3 (reads of this peptide / all reads for the bait, averaged over … for the second.

Compared with chain 1 L2T, chain 1 L2V is lower in screen value: 0.00177 average fractional NGS count over selection days 2 and 3 (reads of this peptide / all reads for the bait, averaged over … for the first, 0.00022 average fractional NGS count over selection days 2 and 3 (reads of this peptide / all reads for the bait, averaged over … for the second.

Going from chain 1 L2P to chain 1 L2N, the screen value falls from 0.00136 average fractional NGS count over selection days 2 and 3 (reads of this peptide / all reads for the bait, averaged over … to 0.00027 average fractional NGS count over selection days 2 and 3 (reads of this peptide / all reads for the bait, averaged over ….

Compared with chain 1 L2W, chain 1 L2E is higher in screen value: 0.00229 average fractional NGS count over selection days 2 and 3 (reads of this peptide / all reads for the bait, averaged over … for the first, 0.00558 average fractional NGS count over selection days 2 and 3 (reads of this peptide / all reads for the bait, averaged over … for the second.

First: chain 1 L2F
Second: chain 1 L2I
The screen value of the first is higher: 0.00251 average fractional NGS count over selection days 2 and 3 (reads of this peptide / all reads for the bait, averaged over … for the first, 0.000452 average fractional NGS count over selection days 2 and 3 (reads of this peptide / all reads for the bait, averaged over … for the second.

Going from chain 1 L2R to chain 1 L2M, the screen value rises from 0.000311 average fractional NGS count over selection days 2 and 3 (reads of this peptide / all reads for the bait, averaged over … to 0.00216 average fractional NGS count over selection days 2 and 3 (reads of this peptide / all reads for the bait, averaged over ….

Going from chain 1 L2D to chain 1 L2A, the screen value falls from 0.000976 average fractional NGS count over selection days 2 and 3 (reads of this peptide / all reads for the bait, averaged over … to 0.00082 average fractional NGS count over selection days 2 and 3 (reads of this peptide / all reads for the bait, averaged over ….

Compared with chain 1 R13S, chain 1 R13G is lower in screen value: 0.000102 average fractional NGS count over selection days 2 and 3 (reads of this peptide / all reads for the bait, averaged over … for the first, 3.78e-05 average fractional NGS count over selection days 2 and 3 (reads of this peptide / all reads for the bait, averaged over … for the second.

First: chain 1 R13T
Second: chain 1 R13A
The screen value of the first is lower: 0.000227 average fractional NGS count over selection days 2 and 3 (reads of this peptide / all reads for the bait, averaged over … for the first, 0.00128 average fractional NGS count over selection days 2 and 3 (reads of this peptide / all reads for the bait, averaged over … for the second.

First: chain 1 R13F
Second: chain 1 R13H
The screen value of the first is higher: 0.000441 average fractional NGS count over selection days 2 and 3 (reads of this peptide / all reads for the bait, averaged over … for the first, 6.28e-05 average fractional NGS count over selection days 2 and 3 (reads of this peptide / all reads for the bait, averaged over … for the second.

First: chain 1 R13W
Second: chain 1 R13I
The screen value of the first is higher: 0.00314 average fractional NGS count over selection days 2 and 3 (reads of this peptide / all reads for the bait, averaged over … for the first, 0.000728 average fractional NGS count over selection days 2 and 3 (reads of this peptide / all reads for the bait, averaged over … for the second.

First: chain 1 R13V
Second: chain 1 R13E
The screen value of the first is higher: 0.000492 average fractional NGS count over selection days 2 and 3 (reads of this peptide / all reads for the bait, averaged over … for the first, 0.000127 average fractional NGS count over selection days 2 and 3 (reads of this peptide / all reads for the bait, averaged over … for the second.

Going from chain 1 P7I to chain 1 P7T, the screen value falls from 0.00214 average fractional NGS count over selection days 2 and 3 (reads of this peptide / all reads for the bait, averaged over … to 0.000231 average fractional NGS count over selection days 2 and 3 (reads of this peptide / all reads for the bait, averaged over ….

Going from chain 1 P7G to chain 1 P7L, the screen value rises from 0.000231 average fractional NGS count over selection days 2 and 3 (reads of this peptide / all reads for the bait, averaged over … to 0.000549 average fractional NGS count over selection days 2 and 3 (reads of this peptide / all reads for the bait, averaged over ….

First: chain 1 P7V
Second: chain 1 P7H
The screen value of the first is higher: 0.00339 average fractional NGS count over selection days 2 and 3 (reads of this peptide / all reads for the bait, averaged over … for the first, 7.35e-05 average fractional NGS count over selection days 2 and 3 (reads of this peptide / all reads for the bait, averaged over … for the second.

First: chain 1 P7K
Second: chain 1 P7N
The screen value of the first is higher: 0.000378 average fractional NGS count over selection days 2 and 3 (reads of this peptide / all reads for the bait, averaged over … for the first, 0.000153 average fractional NGS count over selection days 2 and 3 (reads of this peptide / all reads for the bait, averaged over … for the second.

Going from chain 1 P7A to chain 1 P7M, the screen value falls from 0.00162 average fractional NGS count over selection days 2 and 3 (reads of this peptide / all reads for the bait, averaged over … to 0.000243 average fractional NGS count over selection days 2 and 3 (reads of this peptide / all reads for the bait, averaged over ….

First: chain 1 R3G
Second: chain 1 R3L
The screen value of the first is higher: 0.00132 average fractional NGS count over selection days 2 and 3 (reads of this peptide / all reads for the bait, averaged over … for the first, 7.89e-05 average fractional NGS count over selection days 2 and 3 (reads of this peptide / all reads for the bait, averaged over … for the second.

First: chain 1 R3V
Second: chain 1 R3W
The screen value of the first is higher: 0.000502 average fractional NGS count over selection days 2 and 3 (reads of this peptide / all reads for the bait, averaged over … for the first, 0.00019 average fractional NGS count over selection days 2 and 3 (reads of this peptide / all reads for the bait, averaged over … for the second.

chain 1 R3D was tested, and the screen value was 8.49e-05 average fractional NGS count over selection days 2 and 3 (reads of this peptide / all reads for the bait, averaged over ….
